Results: US20220119534A1 (DRAGONFLY THERAPEUTICS, published 2022)

B1: Genentech-h6E7 (antibody, V domains shown)
VH: EVQLVQSGAEVKKPGASVKVSCKASGYSFTDYYMHWVRQAPGQGLEWIGRINPYNGAAFYSQNFKDRVTLTVDTSTSTAYLELSSLRSEDTAVYYCAIERGADLEGYAMDYWGQGTLVTVSS
VL: DIQMTQSPSSLSASVGDRVTITCRASQSVSTSSYNYMHWYQQKPGKPPKLLIKYASNLESGVPSRFSGSGSGTDFTLTISSLQPEDFATYYCQHSWEIPLTFGQGTKVEIK
B2: AB0037 mAb (Humanized 1602 anti-CLEC12A mAb) (antibody, V domains shown)
VH: QLQLQESGPGLVKPSETLSLTCTVSGFSLTNYGLHWIRQPPGKGLEWIGVIWSGGKTDYNPSLKSRVTISKDTSKNQFSLKLSSVQAADTAVYYCAKYDYDDSLDYWGQGTLVTVSS
VL: DIQMTQSPSSLSASVGDRVTITCHASQNINFWLSWYQQKPGKAPKLLIYEASNLHTGVPSRFSGSGSGTRFTLTISSLQPEDIATYYCQQSHSYPLTFGGGTKLEIK
B3: AB0237 (F3'-1602 TriNKET) (bispecific antibody, human IgG1, kappa)
chain: QLQLQESGPGLVKPSETLSLTCTVSGFSLTNYGLHWIRQPPGKCLEWIGVIWSGGKTDYNPSLKSRVTISKDTSKNQFSLKLSSVQAADTAVYYCAKYDYDDSLDYWGQGTLVTVSSGGGGSGGGGSGGGGSGGGGSDIQMTQSPSSLSASVGDRVTITCHASQNINFWLSWYQQKPGKAPKLLIYEASNLHTGVPSRFSGSGSGTRFTLTISSLQPEDIATYYCQQSHSYPLTFGCGTKLEIKGSDKTHTCPPCPAPELLGGPSVFLFPPKPKDTLMISRTPEVTCVVVDVSHEDPEVKFNWYVDGVEVHNAKTKPREEQYNSTYRVVSVLTVLHQDWLNGKEYKCKVSNKALPAPIEKTISKAKGQPREPRVYTLPPCRDELTKNQVSLTCLVKGFYPSDIAVEWESNGQPENNYKTTPPVLVSDGSFTLYSKLTVDKSRWQQGNVFSCSVMHEALHNHYTQKSLSLSPG
heavy: EVQLVESGGGLVKPGGSLRLSCAASGFTFSSYSMNWVRQAPGKGLEWVSSISSSSSYIYYADSVKGRFTISRDNAKNSLYLQMNSLRAEDTAVYYCARGAPIGAAAGWFDPWGQGTLVTVSSASTKGPSVFPLAPSSKSTSGGTAALGCLVKDYFPEPVTVSWNSGALTSGVHTFPAVLQSSGLYSLSSVVTVPSSSLGTQTYICNVNHKPSNTKVDKKVEPKSCDKTHTCPPCPAPELLGGPSVFLFPPKPKDTLMISRTPEVTCVVVDVSHEDPEVKFNWYVDGVEVHNAKTKPREEQYNSTYRVVSVLTVLHQDWLNGKEYKCKVSNKALPAPIEKTISKAKGQPREPQVCTLPPSRDELTENQVSLTCLVKGFYPSDIAVEWESNGQPENNYKTTPPVLDSDGSFFLYSWLTVDKSRWQQGNVFSCSVMHEALHNHYTQKSLSLSPG
light: DIQMTQSPSSVSASVGDRVTITCRASQGISSWLAWYQQKPGKAPKLLIYAASSLQSGVPSRFSGSGSGTDFTLTISSLQPEDFATYYCQQGVSFPRTFGGGTKVEIKRTVAAPSVFIFPPSDEQLKSGTASVVCLLNNFYPREAKVQWKVDNALQSGNSQESVTEQDSKDSTYSLSSTLTLSKADYEKHKVYACEVTHQGLSSPVTKSFNRGEC
B4: AB0189 (other)
chain: DIKMTQSPSSLSASVGDRVTITCKASQDIYNYLSWFQQKPGKAPKPLIYRANILVSGVPSRFSGSGSGQDYTLTISSLQPEDIATYYCLQFDAFPFTFGCGTKLEIKGGGGSGGGGSGGGGSGGGGSEVQLVESGGGVVQPGGSLRLSCAASGFTFNAFGMHWVRQAPGKCLEWVAFISSGSTSIYYANTVKGRFTISRDNSKNTLYLQMNSLRAEDTAVYYCARDGYPTGGAMDYWGQGTSVTVSSGSDKTHTCPPCPAPELLGGPSVFLFPPKPKDTLMISRTPEVTCVVVDVSHEDPEVKFNWYVDGVEVHNAKTKPREEQYNSTYRVVSVLTVLHQDWLNGKEYKCKVSNKALPAPIEKTISKAKGQPREPRVYTLPPCRDELTKNQVSLTCLVKGFYPSDIAVEWESNGQPENNYKTTPPVLVSDGSFTLYSKLTVDKSRWQQGNVFSCSVMHEALHNHYTQKSLSLSPG
heavy: B3 heavy
light: B3 light
notes: As AB0185
B5: Merus-CLL1 (antibody, V domains shown)
VH: EVQLVQSGAEVKKPGASVKVSCKASGYTFTSYYMHWVRQAPGQGLEWMGIINPSGGSTSYAQKFQGRVTMTRDTSTSTVYMELSSLRSEDTAVYYCARGNYGDEFDYWGQGTLVTVSS
VL: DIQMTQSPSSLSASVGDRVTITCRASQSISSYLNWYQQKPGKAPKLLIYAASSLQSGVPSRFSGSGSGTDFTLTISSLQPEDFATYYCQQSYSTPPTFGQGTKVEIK

Tests used:
[1] = target: T1, human CLEC12A expressed on cells (human, UniProt Q5QGZ9 1-265); experiment: flow cytometry, PL21 cells
T1 construct: Transduced isogenic cells or endogenous expression on AML cells; also called RMA-hCLEC12A; Ba/F3-hCLEC12A
T1 sequence: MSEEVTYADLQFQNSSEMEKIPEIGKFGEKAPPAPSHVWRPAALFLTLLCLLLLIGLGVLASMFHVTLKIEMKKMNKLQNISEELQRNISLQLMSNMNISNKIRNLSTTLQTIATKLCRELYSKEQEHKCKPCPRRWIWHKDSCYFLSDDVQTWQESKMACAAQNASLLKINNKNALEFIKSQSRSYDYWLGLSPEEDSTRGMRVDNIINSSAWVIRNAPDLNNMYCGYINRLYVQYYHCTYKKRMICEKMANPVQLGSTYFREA
Description: The ability of the eight purified subcloned mAbs to bind to CLEC12A expressing cells was assessed by FACS analysis with human CLEC12A-positive PL21 cancer cell line.

[2] = target: T2, Human CLEC12A expressed on cells (Ba/F3-hCLEC12A, PL21, HL60) (human, UniProt Q5QGZ9 1-265); experiment: cell-based or functional assay
T2 sequence: T1 sequence

[3] = target: T1, human CLEC12A expressed on cells; experiment: flow cytometry, HL60
[4] = target: T3, recombinant human CLEC12A-His (human, UniProt Q5QGZ9 65-265); experiment: SPR screening, semi-purified
T3 construct: also called hCLEC12A-His; hCLEC12A
T3 sequence: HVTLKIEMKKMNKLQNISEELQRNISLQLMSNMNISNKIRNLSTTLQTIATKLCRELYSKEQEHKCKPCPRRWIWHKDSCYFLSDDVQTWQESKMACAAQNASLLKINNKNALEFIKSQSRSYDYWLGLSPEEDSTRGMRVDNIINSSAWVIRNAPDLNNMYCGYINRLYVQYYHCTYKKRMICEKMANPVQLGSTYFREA

[5] = target: T1, human CLEC12A expressed on cells; experiment: flow cytometry, hCLEC12A+ Ba/F3

Binder | EC50 [1] [nM] | Max MFI [1] [MFI] | % Max, ADCP activity of M0 macrophages against PL21 cells [2] [%] | EC50, ADCP activity of M0 macrophages against PL21 cells [2] [nM] | other results
B1 | 5 | 265 | – | – | –
B2 | – | – | 11 | 0.05 | –
B3 | – | – | 12 | 0.08 | –
B4 | – | – | – | – | EC50 [3]: 0.7 nM; Max binding MFI [3]: 420 MFI; Kd [4]: 1.21 nM; koff [4]: 0.00127 s⁻¹; kon [4]: 1.04e+06 M⁻¹ s⁻¹; EC50 [5]: 1.3 nM; Max binding MFI [5]: 8760 MFI
B5 | 2.02 | 201 | – | – | –
